We go through eleven substances from US6391571.

Assay [1] deals with monobiotinylated Fab' antibody fragment. Put plainly: BIAcore SPR, streptavidin immobilized on CM5 chip, Fab' at 12.5-400 nmol/l, 25 C.
Assay [2] has the same target. The experiment in a line: BIAcore SPR, mutein immobilized on CM5 chip, Fab' at 12.5-400 nmol/l, 25 C. On the technique in general: SPR reads the build-up and loss of mass on a sensor chip optically.
Assay [3] has the same target. The experiment in a line: BIAcore SPR, mutein-thermo-BSA conjugate immobilized on CM5 chip, Fab' at 12.5-400 nmol/l, 25 C.
The target is the same in assay [4]. The experiment in a line: BIAcore SPR, mutein immobilized on CM5 chip, Fab' at 12.5-400 nmol/l, 25 C; second of 2 product lots.
For assay [5] the target is unchanged. Put plainly: BIAcore SPR, mutein immobilized on CM5 chip, Fab' at 12.5-400 nmol/l, 25 C; first of 2 product lots.

Sequence of core streptavidin (wild type streptavidin) (chain): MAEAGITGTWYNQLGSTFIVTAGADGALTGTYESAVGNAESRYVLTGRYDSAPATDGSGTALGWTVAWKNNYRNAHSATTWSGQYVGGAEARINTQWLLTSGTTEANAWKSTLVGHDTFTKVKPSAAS
Sequence of SA-Ser27Arg/Ser45Arg TBSA conjugate (P02769 25-607, change not shown): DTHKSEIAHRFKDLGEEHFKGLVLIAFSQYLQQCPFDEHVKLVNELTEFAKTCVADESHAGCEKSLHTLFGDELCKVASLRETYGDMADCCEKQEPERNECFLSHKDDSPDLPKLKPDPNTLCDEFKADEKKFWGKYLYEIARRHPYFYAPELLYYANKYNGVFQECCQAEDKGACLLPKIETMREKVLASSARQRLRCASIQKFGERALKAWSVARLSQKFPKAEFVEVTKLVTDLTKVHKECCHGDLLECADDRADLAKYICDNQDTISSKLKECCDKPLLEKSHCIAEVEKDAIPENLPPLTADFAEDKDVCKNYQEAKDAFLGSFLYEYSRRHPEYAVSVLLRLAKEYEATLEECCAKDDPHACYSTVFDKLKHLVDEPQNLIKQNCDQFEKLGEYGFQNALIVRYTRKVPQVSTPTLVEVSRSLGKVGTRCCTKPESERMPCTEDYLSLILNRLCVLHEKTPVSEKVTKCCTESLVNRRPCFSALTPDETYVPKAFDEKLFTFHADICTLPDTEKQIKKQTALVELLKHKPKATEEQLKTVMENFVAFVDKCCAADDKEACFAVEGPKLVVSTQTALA

“core streptavidin (wild type streptavidin)”: in assay [1], the Ka is over 1e+10 M⁻¹, the koff is under 1e-05 s⁻¹, the kon was 220000 M⁻¹ s⁻¹ and the t/2 diss was over 20 h.

In assay [2], SA-Leu25Trp/Ser45Arg came in with a Ka of 3.6e+08 M⁻¹, a koff of 0.00022 s⁻¹, a kon of 79000 M⁻¹ s⁻¹ and a t/2 diss of 51.8 min.

With “SA-Ser27Arg/Ser45Arg TBSA conjugate (from UniProt P02769 25-607)”, in assay [3], the Ka was found to be 3.3e+07 M⁻¹, the koff turned out to be 0.003 s⁻¹, the kon stood at 100000 M⁻¹ s⁻¹ and the t/2 diss came to 3.9 min.

Regarding SA-Ser27Arg/Ser45Arg/Trp120Ala, in assay [2], the Ka was found to be 2e+07 M⁻¹, the off-rate (koff) stood at 0.0052 s⁻¹, the kon stood at 100000 M⁻¹ s⁻¹ and the t/2 diss is 2.2 min.

In assay [2], SA-Trp120Ala returned a Ka of 2.9e+08 M⁻¹, a koff of 0.00023 s⁻¹, a kon of 67000 M⁻¹ s⁻¹ and a t/2 diss of 49.4 min.

As to SA-Leu25Trp/Ser45Tyr/Leu110Trp, in assay [2], the Ka was 4.6e+07 M⁻¹, the koff came to 0.0013 s⁻¹, the association rate constant (kon) was 54000 M⁻¹ s⁻¹ and the t/2 diss came to 8.7 min.

Consider SA-Ser45Trp/Leu110Trp, for which, in assay [2], the Ka was determined as 6.1e+08 M⁻¹, the koff worked out at 0.00033 s⁻¹, the kon turned out to be 140000 M⁻¹ s⁻¹ and the t/2 diss came to 40.8 min.

SA-Ser27Arg/Ser45Arg: in assay [4], the Ka was 2.1e+07 M⁻¹, the off-rate (koff) came out at 0.0041 s⁻¹, the kon was 85000 M⁻¹ s⁻¹ and the t/2 diss came out at 2.8 min. In assay [5], this substance returned a Ka of 4.2e+07 M⁻¹, a kon of 130000 M⁻¹ s⁻¹ and a t/2 diss of 3.7 min.

In assay [2], SA-Ser27Arg/Ser45Arg/Leu110Trp yielded a Ka of 7.7e+06 M⁻¹, a koff of 0.0059 s⁻¹, a kon of 45000 M⁻¹ s⁻¹ and a t/2 diss of 2 min.

In assay [2], SA-Ser45Tyr/Leu110Trp returned a Ka of 2.7e+08 M⁻¹, a koff of 0.00054 s⁻¹, a kon of 130000 M⁻¹ s⁻¹ and a t/2 diss of 22.6 min.

In assay [2], SA-Leu25Trp/Ser45Trp/Leu110Trp registered a Ka of 7e+07 M⁻¹, a koff of 0.00087 s⁻¹, a kon of 49000 M⁻¹ s⁻¹ and a t/2 diss of 13.4 min.

In general, koff refers to the first-order rate constant of dissociation. Read a low koff as slow dissociation. One may read the kon as the second-order rate constant of association. Read a high kon as fast association.
